# Where a SMILES comes first, the peptide text is derived from it. The star is where a group is joined. Cbz = O=C(OCc1ccccc1)*; CHN2 = [N-]=[N+]=C*
# Columns and labels:
# CTL precursors = assay: MLC activated anti-H-2 specific CTL from spleen cells; assay type: in vivo, murine; details: spleen cells of saline injected mice treated with 250 μM Leu-Leu-Ome
# Description: (§1) The Yac-1 represents a standard target for natural killer (NK) cells.
# Unlike control cells, spleen cells in which DPPI activity was inhibited were resistant to any discernible toxic effects of Leu--Leu--OMe on NK function of the capacity to generate anti-H-2^d specific CTL.
# NK cells (Yac-1 targets) = assay: NK function of spleen cells, specific lysis of Yac-1; assay type: in vivo, murine; details: spleen cells of saline injected mice treated with 250 μM Leu-Leu-Ome
# Description: as §1
# [1] = system: BLT esterase (granzyme A); assay: BLT esterase activity in IL2 activated human PBL; assay type: cell-based; details: IL2 activated Leu--Leu--OMe treated PBL
# Description: The cells were then harvested, disrupted in a dounce homogenizer, the nuclei pelleted and residual intact cells removed by centrifugation and the granule fraction localized on discontinuous Percoll gradients. […] Thus, Leu--Leu--OMe sensitive, DPPI enriched cells are the source of BLT esterase in such IL2 activated cultures.
# [2] = target: human dipeptidyl peptidase-I (Homo sapiens, UniProt P53634); assay: Effect of protease inhibitors on DPPI activity (purified enzyme); assay type: biochemical; design: Human DPPI is now established to constitute a 200,000 Da glycoprotein with 24,000 Da subunits; from tissue; host or cells: human cadaveric spleen; details: screening conditions pH 5.5
# Experimental: Note. Purified human dipeptidyl peptidaseI (0.4 μg) was preincubated
# with each of the inhibitors at the stated concentration for 15 min at
# 37° C.. Each sample was diluted 3fold with assay buffer containing
# substrate and incubated for an additional 20 min.
# [3] = target: T1, BLT esterase (granzyme A) (Mus musculus, UniProt P11032); assay: BLT esterase activity in granule fractions of control CD8(+) CTL, in vitro incubation with inhibitor; assay type: biochemical, murine; details: in vitro incubation with 1 mM
# T1 construct: endogenous in cells; host or cells: alloreactive murine CD8(+) T cells, whole cells or Percoll granule fractions
# T1 sequence (P11032 29-260): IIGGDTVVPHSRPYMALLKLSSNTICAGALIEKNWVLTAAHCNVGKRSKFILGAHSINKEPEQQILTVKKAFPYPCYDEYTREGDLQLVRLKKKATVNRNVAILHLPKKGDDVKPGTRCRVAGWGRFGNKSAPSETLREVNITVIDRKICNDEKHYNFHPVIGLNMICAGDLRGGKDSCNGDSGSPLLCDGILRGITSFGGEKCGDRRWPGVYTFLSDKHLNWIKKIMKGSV
# Experimental: 193, Academic Press, New York).
# Cells were incubated for 5 minutes on ice in hypotonic homogenization buffer (0.1× PBS salts, 1 mM MgCl2). The cells were disrupted with a glass pestle homogenizer and isotonic conditions restored by the addition of 10× PBS salts. The homogenates were cleared of cell debris and intact cells by centrifugation at 600 xg for 2 minutes. The soluble extracts were layered on discontinuous Percoll gradients (6 ml 39%, 6 ml 90% Percoll) and centrifuged .for one hour at 17,000 xg. The gradients were fractionated by removing 1 ml aliquots from the top.
# Alloreactive CD8(+) T-cells were homogenized and fractionated on discontinuous Percoll gradients.
# DPPI = DPPI (Homo sapiens, UniProt P53634); details: cited from earlier work
# [4] = target: human leukocyte elastase proenzyme (human) (UniProt P08246)
# [5] = target: propeptide-bearing form of human cathepsin G (human) (UniProt P08311)
# [6] = target: human granzyme A proenzyme (human) (UniProt P12544)
compound,measurement,setting,value
COC(=O)[C@H](CC(C)C)NC(=O)[C@@H](N)CC(C)C [Leu--Leu--OMe],MLC Activated Anti-H-2° Spec. CTL,CTL precursors; 20:1,1
same,MLC Activated Anti-H-2° Spec. CTL,CTL precursors; 80:1,3
same,NK Function % Specific Lysis Yac-1,NK cells (Yac-1 targets); 20:1,< 1 % Specific Lysis
same,NK Function % Specific Lysis Yac-1,NK cells (Yac-1 targets); 80:1,< 1 % Specific Lysis
same,BLT esterase activity,[1],could not be detected
"O=S(=O)(F)Cc1ccccc1 [PMSF, phenylmethylsulfonylfluoride]",effect on DPPI activity (in words),[2],no effect
same,BLT esterase activity in granule fractions inhibited,[3],> 95%
[N-]=[N+]=CC(=O)C(Cc1ccccc1)NC(=O)CNC(=O)C(Cc1ccccc1)NC(=O)OCc1ccccc1 (stereo not drawn) [Z--Phe--Gly--Phe--CHN2] (Cbz-Phe-Gly-Phe-CHN2; configuration not given here),less reactive with DPPI than Gly--Phe--CHN2,DPPI,3 orders of magnitude
human dipeptidyl peptidase-I (from UniProt P53634) (enzyme),generation of elastase activity in U-937 cells with endogenous DPPI inhibited for 48 hours,[4],65 % decrease
same,"processing of newly synthesized cathepsin G to the active form in U-937 cells with endogenous DPPI inhibited (3H-Ile pulse-chase, aprotinin-agarose, radiosequencing)",[5],< 10 % of control
same,generation of granzyme A (BLT esterase) activity in human LAK cells with endogenous DPPI inhibited,[6],< 90 % reduction
same,hydrolysis of synthetic peptide substrate by purified human DPPI (values at 100 µM and 500 µM substrate; value given is at 500 µM),Gly-Pro-βNA,0 not printed
same,hydrolysis of synthetic peptide substrate by purified human DPPI (values at 100 µM and 500 µM substrate; value given is at 500 µM),Asp-Ala-βNA,1000 not printed
same,hydrolysis of synthetic peptide substrate by purified human DPPI (values at 100 µM and 500 µM substrate; value given is at 500 µM),Arg-Arg-βNA,0 not printed
same,hydrolysis of synthetic peptide substrate by purified human DPPI (values at 100 µM and 500 µM substrate; value given is at 500 µM),Suc-Ala-Ala-Pro-Phe-pNA,0 not printed
same,hydrolysis of synthetic peptide substrate by purified human DPPI (values at 100 µM and 500 µM substrate; value given is at 500 µM),Gly-Arg-MNA,4750 not printed
same,hydrolysis of synthetic peptide substrate by purified human DPPI (values at 100 µM and 500 µM substrate; value given is at 500 µM),Gly-Phe-βNA,4380 not printed
same,hydrolysis of synthetic peptide substrate by purified human DPPI (values at 100 µM and 500 µM substrate; value given is at 500 µM),Ala-Ala-Val-Ala-pNA,120 not printed
same,hydrolysis of synthetic peptide substrate by purified human DPPI (values at 100 µM and 500 µM substrate; value given is at 500 µM),Gly-Phe-AMC,6120 not printed
same,hydrolysis of synthetic peptide substrate by purified human DPPI (values at 100 µM and 500 µM substrate; value given is at 500 µM),Ser-Tyr-βNA,2000 not printed
same,hydrolysis of synthetic peptide substrate by purified human DPPI (values at 100 µM and 500 µM substrate; value given is at 500 µM),CBZ-Val-Leu-Arg-MNA,0 not printed
same,hydrolysis of synthetic peptide substrate by purified human DPPI (values at 100 µM and 500 µM substrate; value given is at 500 µM),Gly-Pro-MNA,0 not printed
same,hydrolysis of synthetic peptide substrate by purified human DPPI (values at 100 µM and 500 µM substrate; value given is at 500 µM),Suc-Ala-Ala-Ala-pNA,0 not printed
same,hydrolysis of synthetic peptide substrate by purified human DPPI (values at 100 µM and 500 µM substrate; value given is at 500 µM),Ala-Ala-pNA,1000 not printed
same,hydrolysis of synthetic peptide substrate by purified human DPPI (values at 100 µM and 500 µM substrate; value given is at 500 µM),Gly-Phe-pNA,380 not printed
same,hydrolysis of synthetic peptide substrate by purified human DPPI (values at 100 µM and 500 µM substrate; value given is at 500 µM),Gly-Phe-MNA,5750 not printed
same,hydrolysis of synthetic peptide substrate by purified human DPPI (values at 100 µM and 500 µM substrate; value given is at 500 µM),CBZ-Gly-Pro-Arg-AMC,0 not printed
same,hydrolysis of synthetic peptide substrate by purified human DPPI (values at 100 µM and 500 µM substrate; value given is at 500 µM),Pro-Phe-Arg-AMC,0 not printed
same,hydrolysis of synthetic peptide substrate by purified human DPPI (values at 100 µM and 500 µM substrate; value given is at 500 µM),CBZ-Arg-Arg-βNA,0 not printed
same,hydrolysis of synthetic peptide substrate by purified human DPPI (values at 100 µM and 500 µM substrate; value given is at 500 µM),Ser-Tyr-MNA,1750 not printed
